# In US12428627B2, “Mutant p-hydroxyphenylpyruvate dioxygenase, and coding nucleic acid and use thereof” (Qingdao Kingagroot Chemical Compound Co., Ltd., priority 2018, dated 2025):
# B1: H141R/G342D/D370N: three-site mutant rice HPPD (OsHPPD3M) (protein, listed as Oryza sativa)
# chain: MPPTPTPTATTGAVSAAAAAGENAGFRLVGHRRFVRANPRSDRFQALAFHHVELWCADAASAAGRFAFALGAPLAARSDLSTGNSAHASLLLRSASVAFLFTAPYGGDHGVGADAATTASIPSFSPGAARRFAADHGLAVRAVALRVADAADAFRASVAAGARPAFQPADLGGGFGLAEVELYGDVVLRFVSHPDGADAPFLPGFEGVSNPGAVDYGLRRFDHVVGNVPELAPVAAYISGFTGFHEFAEFTAEDVGTAESGLNSVVLANNAETVLLPLNEPVHGTKRRSQIQTYLDHHGGPGVQHIALASDDVLGTLREMRARSAMGGFEFLAPPPPNYYDDVRRRAGDVLSEEQINECQELGVLVDRDNQGVLLQIFTKPVGDRPTFFLEMIQRIGCMEKDESGQEYQKGGCGGFGKGNFSELFKSIEEYEKSLEAKQAPTVQGS
# modifications: The amino acid sequence of Wild-Type rice HPPD protein (OsHPPD _WT)
# System: rice HPPD (OsHPPD)
# Assay: Color reaction of recombinant E. coli expressing wild-type or mutant rice HPPD, cultured in 96-well plate in medium containing an HPPD-inhibiting herbicide and tyrosine
# Type: cell-based, Oryza sativa
# Conditions: compound 101
# How it was run: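 E. coli clones expressing wild-type or single-site-mutant rice HPPD (residues 51 onward, NNK saturation mutagenesis, pET-44a) grown 24 h at 28 °C in 2×YT with 1 g/L L-Tyr, 0.1 mM IPTG, 0.01 mM MnCl2 and herbicide at 1–20 μM final (tembotrione 1.7 μM, mesotrione 10 μM). Brown homogentisate colour scored semi-quantitatively versus wild type.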
molecule,measurement,value
B1,concentration of 101 required to have no significant color reaction,120 µM
